Literature values as cited in publication PMC10130511.
Like-named read-outs stand apart in the source and are kept apart here.

Tests used:
IP3R [1] = molecular target: IP3R (UniProt P29994)
IP3R [2] = molecular target: IP3R (UniProt P29994); remark: listed apart in the source
IP3R [3] = molecular target: IP3R (UniProt P29994); remark: listed apart in the source

Chain of UniProt P29994 (P29994 whole entry): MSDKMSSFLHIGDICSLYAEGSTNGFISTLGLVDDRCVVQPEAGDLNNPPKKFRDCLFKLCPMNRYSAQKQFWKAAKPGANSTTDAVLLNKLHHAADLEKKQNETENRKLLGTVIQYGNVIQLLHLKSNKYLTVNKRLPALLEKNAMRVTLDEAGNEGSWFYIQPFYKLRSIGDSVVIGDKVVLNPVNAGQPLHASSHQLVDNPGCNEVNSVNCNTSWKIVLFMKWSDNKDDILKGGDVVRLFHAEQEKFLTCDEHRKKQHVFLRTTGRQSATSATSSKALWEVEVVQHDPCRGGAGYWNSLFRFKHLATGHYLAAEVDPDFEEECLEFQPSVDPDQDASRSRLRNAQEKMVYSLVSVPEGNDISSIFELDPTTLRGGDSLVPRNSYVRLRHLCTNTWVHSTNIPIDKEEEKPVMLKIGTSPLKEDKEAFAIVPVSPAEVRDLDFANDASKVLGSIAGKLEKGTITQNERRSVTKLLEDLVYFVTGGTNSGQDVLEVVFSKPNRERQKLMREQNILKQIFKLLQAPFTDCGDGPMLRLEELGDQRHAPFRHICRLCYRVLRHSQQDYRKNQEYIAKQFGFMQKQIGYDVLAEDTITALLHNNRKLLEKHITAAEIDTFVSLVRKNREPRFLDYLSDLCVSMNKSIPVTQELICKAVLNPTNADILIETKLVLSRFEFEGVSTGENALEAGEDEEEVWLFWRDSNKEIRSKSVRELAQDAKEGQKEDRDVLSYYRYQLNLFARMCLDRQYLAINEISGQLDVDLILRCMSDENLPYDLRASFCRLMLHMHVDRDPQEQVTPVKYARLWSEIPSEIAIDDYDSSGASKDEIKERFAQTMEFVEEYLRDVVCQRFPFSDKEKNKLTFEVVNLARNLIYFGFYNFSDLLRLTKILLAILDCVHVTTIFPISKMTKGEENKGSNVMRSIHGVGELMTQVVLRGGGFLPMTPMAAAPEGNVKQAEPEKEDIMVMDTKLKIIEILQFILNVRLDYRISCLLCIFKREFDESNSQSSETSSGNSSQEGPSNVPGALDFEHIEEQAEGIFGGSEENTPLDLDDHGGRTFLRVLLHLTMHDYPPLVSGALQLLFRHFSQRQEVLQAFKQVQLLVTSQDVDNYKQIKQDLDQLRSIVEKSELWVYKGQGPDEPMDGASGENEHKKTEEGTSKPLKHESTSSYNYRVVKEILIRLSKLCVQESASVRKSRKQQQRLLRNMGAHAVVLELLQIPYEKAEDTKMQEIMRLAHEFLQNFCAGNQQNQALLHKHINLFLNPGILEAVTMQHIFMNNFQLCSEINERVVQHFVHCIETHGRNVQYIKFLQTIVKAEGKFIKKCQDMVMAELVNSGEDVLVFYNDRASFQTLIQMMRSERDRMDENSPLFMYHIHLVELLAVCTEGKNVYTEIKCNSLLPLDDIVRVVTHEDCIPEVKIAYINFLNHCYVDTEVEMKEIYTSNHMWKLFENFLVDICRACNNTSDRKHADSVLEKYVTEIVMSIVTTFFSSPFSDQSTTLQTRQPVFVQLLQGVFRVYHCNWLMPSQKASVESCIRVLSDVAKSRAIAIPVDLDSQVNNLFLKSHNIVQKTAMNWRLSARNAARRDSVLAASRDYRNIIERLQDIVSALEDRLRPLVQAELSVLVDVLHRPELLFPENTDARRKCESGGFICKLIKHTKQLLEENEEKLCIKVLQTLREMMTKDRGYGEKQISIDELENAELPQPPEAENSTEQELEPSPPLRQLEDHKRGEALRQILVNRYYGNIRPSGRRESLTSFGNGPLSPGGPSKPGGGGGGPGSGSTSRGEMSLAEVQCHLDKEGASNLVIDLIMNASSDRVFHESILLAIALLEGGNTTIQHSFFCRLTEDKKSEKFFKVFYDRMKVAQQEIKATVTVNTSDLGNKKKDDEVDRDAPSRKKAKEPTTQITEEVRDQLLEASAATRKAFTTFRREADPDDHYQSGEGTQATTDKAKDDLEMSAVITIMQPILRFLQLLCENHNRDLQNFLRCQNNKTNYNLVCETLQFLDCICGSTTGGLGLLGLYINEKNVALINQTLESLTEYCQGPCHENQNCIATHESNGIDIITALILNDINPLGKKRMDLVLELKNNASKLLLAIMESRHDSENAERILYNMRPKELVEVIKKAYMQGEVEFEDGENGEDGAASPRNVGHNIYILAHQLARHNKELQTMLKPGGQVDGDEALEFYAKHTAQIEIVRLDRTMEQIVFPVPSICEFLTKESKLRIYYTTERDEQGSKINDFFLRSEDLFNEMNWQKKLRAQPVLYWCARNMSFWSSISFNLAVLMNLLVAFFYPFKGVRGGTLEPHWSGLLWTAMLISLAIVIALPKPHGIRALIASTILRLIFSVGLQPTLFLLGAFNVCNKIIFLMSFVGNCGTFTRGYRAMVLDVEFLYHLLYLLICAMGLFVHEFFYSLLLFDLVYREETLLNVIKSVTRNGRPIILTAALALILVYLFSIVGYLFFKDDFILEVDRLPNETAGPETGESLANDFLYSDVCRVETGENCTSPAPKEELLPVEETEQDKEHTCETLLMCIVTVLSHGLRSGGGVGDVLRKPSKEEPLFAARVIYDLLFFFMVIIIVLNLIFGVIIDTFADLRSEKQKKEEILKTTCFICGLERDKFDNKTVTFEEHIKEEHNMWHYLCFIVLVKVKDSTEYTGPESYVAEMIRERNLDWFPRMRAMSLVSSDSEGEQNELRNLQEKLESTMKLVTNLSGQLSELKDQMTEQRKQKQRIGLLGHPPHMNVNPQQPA

In the case of Bcl-2 (from UniProt P10415), the Kd (IP3R [1]) is listed as 1000 nM.

In the case of Bcl-xL (from UniProt Q07817), the Kd (IP3R [2]) is listed as 700 nM.

In the case of Bok (from UniProt Q9UMX3), the Kd (IP3R [3]) is given as 65 nM.
